Experimental data published in patent US20220233706A1 (ANTIKOR BIOPHARMA, published 2022).
Values joined by “and” are separate entries in the source; they are usually repeats but may differ in a detail not shown here. Identical values can stand only once.

Columns and labels:
HER2-Fc [1] = target: T1, HER2-Fc (UniProt P04626 23-652); experiment: ELISA, plates coated with 10 µg/ml HER2-Fc, anti-myc IgG detection
T1 construct: Coated at 10 µg/ml on ELISA plates; also called HER2 antigen; immobilised HER2 target antigen (ELISA); not shown: Fc part

HER2-Fc [2] = target: T1, HER2-Fc; experiment: ELISA, plates coated with 10 µg/ml HER2-Fc, anti-T7 peroxidase detection
Protocol: (§1) All proteins were detected using the C-terminal T7 Tag which was not expected to be chemically modified (no lysines present). 96-well Immunosorb ELISA plates were coated with 10 μg/ml HER2-Fc in PBS, followed by the test samples, anti-T7 peroxidase conjugate. Extensive PBS washes were in between each layer and detection was with BM-Blue substrate.

HER2-Fc [3] = target: T1, HER2-Fc; experiment: ELISA on plates coated with 10 µg/ml HER2-Fc, detection anti-T7 peroxidase conjugate, absorption at 450 nm
Protocol: as §1

[4] = target: T2, HER2 immobilised on a Biacore chip (UniProt P04626 23-652, limits assumed); experiment: Biacore SPR, HER2 amine-coupled to the chip
T2 construct: also called immobilised HER2 target antigen (Biacore SPR); HER2 chip

[5] = target: T2, HER2 immobilised on a Biacore chip; experiment: Biacore SPR, HER2 amine-coupled to the chip; Acetate conjugate, DAR 16
Protocol: (§2) A standard amine-coupling method was used to prepare all Biacore surfaces (CM5 or CM3), as follows. Flow cells were activated individually by injecting a freshly mixed solution of 0.2M EDC in 0.05 M NHS at 30 μl/min. […] Excess NHS ester was deactivated using a 1 M ethanolamine solution. […] The dissociation time was extended to 3600 s for the highest concentration. Surfaces were regenerated with 45 s injection of MgCl₂ […].

[6] = target: T2, HER2 immobilised on a Biacore chip; experiment: Biacore SPR, HER2 amine-coupled to the chip; unmodified scFv (TCT1067)
Protocol: as §2

“C6.5 scFv-SPDP conjugate, linker to antibody ratio 5.4, reduced with TCEP” showed a Kd (HER2-Fc [1]) of 24.9 nM.

In the case of “C6.5 scFv, non-SPDP modified but reduced control”, the Kd (HER2-Fc [1]) is reported as 42 nM.

B1: scFv (TCT)-Cemadotin ADC sample 3 (DAR 11) (scFv)
scFv: SGSGGSGQVQLVQSGAEVKKPGESLKISCKGSGYSFTSYWIAWVRQMPGKGLEYMGLIYPGDSDTKYSPSFQGQVTISVDKSVSTAYLQWSSLKPSDSAVYFCARHDVGYCSSSNCAAWPEYFQHWGQGTLVTVSSGGGGSGGGGSGGGGSQSVLTQPPSVSAAPGQKVTISCSGSSSNIGNNYVSWYQQLPGTAPKLLIYGHTNRPAGVPDRFSGSKSGTSASLAISGFRSEDEADYYCAAWDDSLSGWVFGGGTKLTVLMASMTGGQQMG
modifications: Cemadotin on all but one of the surface lysine residues (11/12), DAR 10.96 by AAA
notes: also called TCT-Cem ADC3; TCT-Cemadotin conjugate 3
For B1, the Kd (HER2-Fc [2]) was 27.5 nM and the “EC50 (read off the curve)” value (HER2-Fc [3]) was roughly 40 nM.

B2: scFv (TCT)-Cemadotin ADC sample 2 (DAR 8.2) (scFv)
scFv: SGSGGSGQVQLVQSGAEVKKPGESLKISCKGSGYSFTSYWIAWVRQMPGKGLEYMGLIYPGDSDTKYSPSFQGQVTISVDKSVSTAYLQWSSLKPSDSAVYFCARHDVGYCSSSNCAAWPEYFQHWGQGTLVTVSSGGGGSGGGGSGGGGSQSVLTQPPSVSAAPGQKVTISCSGSSSNIGNNYVSWYQQLPGTAPKLLIYGHTNRPAGVPDRFSGSKSGTSASLAISGFRSEDEADYYCAAWDDSLSGWVFGGGTKLTVLMASMTGGQQMG
modifications: Cemadotin on lysine residues, average DAR 8.2 by AAA
notes: also called TCT-Cem ADC2; TCT-Cemadotin conjugate 2
B2 was tested, and the Kd (HER2-Fc [2]) was 15.5 nM and the “EC50 (read off the curve)” value (HER2-Fc [3]) was roughly 20 nM.

B3: scFv (TCT)-Cemadotin ADC sample 1 (DAR 3.9) (scFv)
scFv: SGSGGSGQVQLVQSGAEVKKPGESLKISCKGSGYSFTSYWIAWVRQMPGKGLEYMGLIYPGDSDTKYSPSFQGQVTISVDKSVSTAYLQWSSLKPSDSAVYFCARHDVGYCSSSNCAAWPEYFQHWGQGTLVTVSSGGGGSGGGGSGGGGSQSVLTQPPSVSAAPGQKVTISCSGSSSNIGNNYVSWYQQLPGTAPKLLIYGHTNRPAGVPDRFSGSKSGTSASLAISGFRSEDEADYYCAAWDDSLSGWVFGGGTKLTVLMASMTGGQQMG
modifications: Cemadotin (from Cemadotin-NHS, compound 2) on lysine residues, average DAR 3.9 by AAA
notes: also called TCT-Cem ADC1; TCT-Cemadotin conjugate 1
In the case of B3, the Kd (HER2-Fc [2]) is reported as 3.3 nM and the “EC50 (read off the curve)” value (HER2-Fc [3]) is reported as roughly 4 nM.

B4: scFv (TCT1067)-Acetate DAR 16 (scFv)
scFv: SGSGGSGQVQLVQSGAEVKKPGESLKISCKGSGYSFTSYWIAWVRQMPGKGLEYMGLIYPGDSDTKYSPSFQGQVTISVDKSVSTAYLQWSSLKPSDSAVYFCARHDVGYCTDRTCAAWPEWLGVWGQGTLVTVSSGGGGSGGGGSGGGGSQSVLTQPPSVSAAPGQKVTISCSGSSSNIGNNYVSWYQQLPGTAPKLLIYGHTNRPAGVPDRFSGSKSGTSASLAISGFRSEDEADYYCASWDYTLSGWVFGGGTKLTVLMASMTGGQQMG
modifications: acetyl groups (from Acetate-NHS) on lysines, N-terminal amine and further residues, 16 additions by LC-MS
notes: also called TCT1067-acetate conjugate 2
Work on B4 yielded a koff [4] of 7.64e-05 s⁻¹, a kon [4] of 3.63e+06 M⁻¹ s⁻¹ and a Kd [5] of 0.021 nM.

B5: scFv (TCT1067) (scFv)
scFv: SGSGGSGQVQLVQSGAEVKKPGESLKISCKGSGYSFTSYWIAWVRQMPGKGLEYMGLIYPGDSDTKYSPSFQGQVTISVDKSVSTAYLQWSSLKPSDSAVYFCARHDVGYCTDRTCAAWPEWLGVWGQGTLVTVSSGGGGSGGGGSGGGGSQSVLTQPPSVSAAPGQKVTISCSGSSSNIGNNYVSWYQQLPGTAPKLLIYGHTNRPAGVPDRFSGSKSGTSASLAISGFRSEDEADYYCASWDYTLSGWVFGGGTKLTVLMASMTGGQQMG
notes: also called unmodified scFv (TCT1067)
For B5, the koff [4] was 3.7e-05 s⁻¹ and 3.69e-05 s⁻¹, the kon [4] was 3.9e+06 M⁻¹ s⁻¹ and 3.88e+06 M⁻¹ s⁻¹ and the Kd [6] was 0.0095 nM.
